Assay results taken from patent US7709002 (US Dept. of Health and Human Services, dated 2010).

How the values were obtained:
[1] = biological target: HLA-A2 (human); experiment: T2 bioassay (peptide 50 µg/ml + b2m 3 µg/ml, overnight), flow cytometry, stained with anti-HLA-A2 MAb
[2] = biological target: HLA-A2 (human); experiment: T2 bioassay (peptide 50 µg/ml + b2m 3 µg/ml, overnight), flow cytometry, stained with pan class I MAb W6/32

MFI [1]: 285
MFI [2]: 523
B1: wild-type ras5-14(Gly12) peptide (peptide)
peptide: KLVVVGAGGV
notes: also called ras5-14(G12); normal ras 10-mer
